Primed or numbered codes have the meaning given here. No end group written: not given here. FITC′ = fluorescein isothiocyanate label
Key:
[1] = molecular target: the molecule itself; test: SEC-MALS; 50 mM Tris pH 8.0, 100 mM NaCl, 1 mM TCEP; 1-3 mg/ml injected; Superdex 200 Increase or Superose 6 Increase
[2] = molecular target: the molecule itself; test: SEC-MALS; physiological pH 7.4; buffer not stated
[3] = molecular target: the molecule itself; test: SEC-MALS; 50 mM sodium acetate pH 4.5, 100 mM NaCl, 1 mM TCEP
[4] = molecular target: T1, R-BiP peptide (REEEDK–FITC); test: fluorescence polarisation; FITC-labeled peptide 100 nM, p62 construct titrated 400 nM to 3 mM; 50 mM Tris pH 8.0, 100 mM NaCl, 1 mM DTT; 384-well; settings: both partners purified
T1 construct: Arg attached to the new N-terminus of cleaved BiP (N-terminal arginylation, R*); BiP/GRP78 from E19 (E19b-E20b-E21b-D22b printed); also called FITC-labeled R-BiP peptide; FITC-labeled R-BiP/GRP78 peptide
T1 peptide: REEEDK-{FITC′}

B1: MBP-fused PB1-ZZ of p62 (residues 1-181) wild type (domain or fragment)
chain: not shown
notes: p62/SQSTM1, human, PB1-ZZ residues 1-181; Oligomeric state depends on pH (hexameric or higher at pH 8.0, polymer at pH 6.0, about a trimer at pH 4.5); also called MBP-PB1-ZZ WT; PB1-ZZ WT
**Q.** For B1, which “stoichiometry N” value [1] is on record?
**A.** Its value is ≥ 6.

**Q.** And the “stoichiometry N” value [2]?
**A.** The value was ≥ 10.

**Q.** And the “stoichiometry N” value [3]?
**A.** The value was ~3.

B2: MBP-PB1-ZZ D149R (domain or fragment, human, UniProt Q13501 1-181, looked up)
chain: MASLTVKAYLLGKEDAAREIRRFSFCCSPEPEAEAEAAAGPGPCERLLSRVAALFPALRPGGFQAHYRDEDGDLVAFSSDEELTMAMSYVKDDIFRIYIKEKKECRRDHRPPCAQEAPRNMVHPNVICDGCNGPVVGTRYKCSVCPDYRLCSVCEGKGLHRGHTKLAFPSPFGHLSEGFSH
notes: p62/SQSTM1, human, PB1-ZZ residues 1-181
**Q.** For B2, which “fold reduction of affinity against WT” value [4] is on record?
**A.** The value was ~30 fold.

B3: MBP-PB1-ZZ D129N (domain or fragment, human, UniProt Q13501 1-181, looked up)
chain: MASLTVKAYLLGKEDAAREIRRFSFCCSPEPEAEAEAAAGPGPCERLLSRVAALFPALRPGGFQAHYRDEDGDLVAFSSDEELTMAMSYVKDDIFRIYIKEKKECRRDHRPPCAQEAPRNMVHPNVICNGCNGPVVGTRYKCSVCPDYDLCSVCEGKGLHRGHTKLAFPSPFGHLSEGFSH
notes: as for B2
**Q.** With B3 as the binder, how does the “fold reduction of affinity against WT” value [4] read?
**A.** Its value is ~30 fold.

B4: MBP-PB1-ZZ K7A (domain or fragment)
chain: not shown
notes: p62/SQSTM1, human, PB1-ZZ residues 1-181; also called monomeric PB1-ZZ mutant
**Q.** With B4 as the binder, how does the “fold higher affinity of PB1-ZZ WT than of this mutant” value [4] read?
**A.** The value was > 10 fold.

B5: MBP-PB1-ZZ D147R (domain or fragment, human, UniProt Q13501 1-181, looked up)
chain: MASLTVKAYLLGKEDAAREIRRFSFCCSPEPEAEAEAAAGPGPCERLLSRVAALFPALRPGGFQAHYRDEDGDLVAFSSDEELTMAMSYVKDDIFRIYIKEKKECRRDHRPPCAQEAPRNMVHPNVICDGCNGPVVGTRYKCSVCPRYDLCSVCEGKGLHRGHTKLAFPSPFGHLSEGFSH
notes: as for B2
**Q.** Which “fold reduction of affinity against WT” value [4] does the source give for B5 here?
**A.** The value was ~30 fold.

B6: MBP-PB1-ZZ D69A (domain or fragment)
chain: not shown
notes: as for B4
**Q.** For B6, which “fold higher affinity of PB1-ZZ WT than of this mutant” value [4] is on record?
**A.** Its value is > 10 fold.

B7: MBP-PB1-ZZ N132L (domain or fragment)
chain: not shown
notes: as for B2
**Q.** B7 was tested. Which “fold reduction of affinity against WT” value [4] did it give?
**A.** Its value is ~30 fold.

B8: Flag-ZZ (ZZ-domain of p62 with the flag-tag) (domain or fragment)
chain: not shown
**Q.** With B8 as the binder, how does the Kd [4] read?
**A.** The Kd was > 800 µM.

From PMC6098011, “Insights into degradation mechanism of N-end rule substrates by p62/SQSTM1 autophagy adapter” (Nature Communications, 2018)
